Kd, koff and kon data for one molecule are collected here from patent US20250243262A1.

Assay [1] has as its target rPcrV protein (recombinant Pseudomonas PcrV) (Pseudomonas aeruginosa). Briefly: SPR (Bio-Rad ProteOn XPR36); antibody captured, rPcrV as analyte; table under the sensorgram.
For assay [2] the target is unchanged. In words: SPR (Bio-Rad ProteOn XPR36); antibody captured on GLC sensor chip with anti-human IgG, rPcrV injected at multiple concentrations.

B1: V2L2-GL (V2L2-germlined mAb) (antibody, V domains shown)
VH: EVQLLESGGGLVQPGGSLRLSCAASGFTFSSYAMNWVRQAPGKGLEWVSAITISGITAYYTDSVKGRFTISRDNSKNTLYLQMNSLRAEDTAVYYCAKEEFLPGTHYYYGMDVWGQGTTVTVSS
VL: AIQMTQSPSSLSASVGDRVTITCRASQGIRNDLGWYQQKPGKAPKLVIYSASTLQSGVPSRFSGSGSGTDFTLSISSLQPDDFATYYCLQDYNYPWTFGQGTKVEIK
B1: in assay [1], the Kd is 143 pM, the koff turned out to be 0.000116 s⁻¹ and the kon came to 808000 M⁻¹ s⁻¹. Moreover, in assay [2], the Kd came out at 143 pM, the koff was 0.000116 s⁻¹ and the association rate constant (kon) amounted to 808000 M⁻¹ s⁻¹.

The Kd is the equilibrium constant for the complex coming apart. One may read the koff as a measure of how fast the partners let go of each other. Usually kon stands for a measure of how fast the partners come together.
